This note sets out measurements from patent publication US20260028423A1, “PREDICTION OF AN INCREASE OF DPP3 IN A PATIENT WITH SEPTIC SHOCK” (4TEEN4 Pharmaceuticals GmbH, priority 2022, published 2026).

Entries after “also recorded” stand apart in the source; their conditions may differ.

One assay has as its target T1, DPP3 (Homo sapiens, UniProt Q9NY33).
T1 construct: from tissue; host or cells: lysate of blood cells from human EDTA-blood
T1 sequence (Q9NY33 1-737): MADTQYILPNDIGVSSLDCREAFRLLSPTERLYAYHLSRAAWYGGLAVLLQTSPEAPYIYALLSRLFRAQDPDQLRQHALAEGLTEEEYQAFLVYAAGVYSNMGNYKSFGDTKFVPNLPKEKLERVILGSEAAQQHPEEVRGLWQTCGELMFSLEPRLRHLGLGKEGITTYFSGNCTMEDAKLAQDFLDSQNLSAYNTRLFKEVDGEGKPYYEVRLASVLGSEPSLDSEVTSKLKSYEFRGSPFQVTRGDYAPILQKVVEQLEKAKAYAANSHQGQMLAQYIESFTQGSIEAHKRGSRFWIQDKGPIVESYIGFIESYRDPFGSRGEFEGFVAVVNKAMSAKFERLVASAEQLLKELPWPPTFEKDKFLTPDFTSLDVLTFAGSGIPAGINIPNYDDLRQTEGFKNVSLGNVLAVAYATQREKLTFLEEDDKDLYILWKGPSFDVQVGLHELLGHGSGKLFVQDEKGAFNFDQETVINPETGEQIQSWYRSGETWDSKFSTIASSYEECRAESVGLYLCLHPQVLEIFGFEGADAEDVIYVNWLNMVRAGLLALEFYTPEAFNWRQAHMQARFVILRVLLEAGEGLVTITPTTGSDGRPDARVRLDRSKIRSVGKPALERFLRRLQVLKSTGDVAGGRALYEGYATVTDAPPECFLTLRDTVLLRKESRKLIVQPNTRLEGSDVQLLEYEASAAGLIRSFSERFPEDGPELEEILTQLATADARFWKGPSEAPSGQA
Description: Western Blot analysis of binding specificity in blood cell lysate. Conditions: AK1967 as primary antibody. As to the method:
Blood cells from human EDTA-blood were washed (3× in PBS), diluted in PBS and lysed by repeated freeze-thaw-cycles. […] Dilutions of blood cell lysate (1:40, 1:80, 1:160 and 1:320) and of purified recombinant human His-DPP3 (31.25-500 ng/ml) were subjected to SDS-PAGE and Western Blot. The blots were incubated in 1.) blocking buffer (1×PBS-T with 5% skim milk powder), 2.) primary antibody solution (AK1967 1:2.000 in blocking buffer) and 3.) HRP labelled secondary antibody (goat anti mouse IgG, 1:1.000 in blocking buffer). Bound secondary antibody was detected using the Amersham ECL Western Blotting Detection Reagent and the Amersham Imager 600 UV (both from GE Healthcare).
(In general: In western blotting, separated proteins are transferred to a membrane and probed.)

Assay [1] addresses T2, native DPP3 from blood cells (Homo sapiens, UniProt Q9NY33).
T2 construct: from tissue; host or cells: blood cells
T2 sequence (Q9NY33 1-737): T1 sequence (Q9NY33 1-737)
Description: DPP3 inhibition curve (FIG. 7). The format is biochemical. Particulars: against 15 ng/ml DPP3.

Assay [2] has as its system isoproterenol-induced heart failure mice. Kind of assay: Isoproterenol-induced heart failure in mice. It is filed as in vivo, mouse. Particulars: 10 mg/kg i.v.; within the first hour after administration. As to the method:
Acute heart failure was induced in male mice at 3 months of age by two daily subcutaneous injections of 300 mg/kg of Isoproterenol, a non-selective β-adrenergic agonist (DL-Isoproterenol hydrochloride, Sigma Chemical Co) (ISO) for two days (Vergaro et al, 2016). The ISO dilution was performed in NaCl 0.9%. Isoproterenol-treated mice were randomly assigned to two groups (Table 10) and PBS or Procizumab (10 mg/kg) were injected intravenously after baseline echocardiography (Gao et al., 2011) and renal resistive index measurements (Lubas et al., 2014, Dewitte et al, 2012) were performed at day 3 (FIGS. 11 A and B). Cardiac function was assessed by echocardiography (Gao et al., 2011) and by the renal resistive index (Lubas et al., 2014, Dewitte et al, 2012) at 1 hour, 6 hours and 24 hours (FIGS. 11 A and B). The group of mice that was injected with vehicle (PBS) instead of isoproterenol was subjected to no further pharmacological treatment and served as the control group (Table 10).

Assay [3] addresses T3, Recombinant GST-tagged hDPP3 (Homo sapiens, UniProt Q9NY33).
T3 construct: purchased USBio (United States Biological, Salem, MA, USA)
T3 sequence (Q9NY33 1-737): T1 sequence (Q9NY33 1-737)
Description: hDPP3 inhibition analysis (DPP3 activity assay, Arg-Arg-βNA). The format is biochemical. Particulars: 25 ng/ml GST-DPP3, 10 μg antibody. The method, then:
To analyze the capability of DPP3 inhibition by the different antibodies and antibody clones a DPP3 activity assay with known procedure (Jones et al., 1982) was performed. Recombinant GST-tagged hDPP3 was diluted in assay buffer (25 ng/ml GST-DPP3 in 50 mM Tris-HCl, pH7,5 and 100 μM ZnCl2) and 200 μl of this solution incubated with 10 μg of the respective antibody at room temperature. After 1 hour of pre-incubation, fluorogenic substrate Arg-Arg-βNA (20 μl, 2 mM) was added to the solution and the generation of free βNA over time was monitored using the Twinkle LB 970 microplate fluorometer (Berthold Technologies GmbH & Co. KG) at 37° C. Fluorescence of βNA is detected by exciting at 340 nm and measuring emission at 410 nm. Slopes (in RFU/min) of increasing fluorescence of the different samples are calculated. The slope of GST-hDPP3 with buffer control is appointed as 100% activity. The inhibitory ability of a possible capture-binder is defined as the decrease of GST-hDPP3 activity by incubation with said capture-binder in percent.

On to “Clone 1967: anti-DPP3 monoclonal antibody, clone 1967 of SEQ ID No.: 37 (AK1967; Procizumab); humanized chains SEQ ID No. 47 and 48”, for which the “binding specificity in lysate of blood cells” value with DPP3 is listed as “no other unspecific binding takes place”. Besides, the “IC50 of DPP3 inhibition” value in assay [1] is listed as “about 15 ng/ml”. The “heart function (shortening fraction)” value in assay [2] is listed as “improved; also recorded: restores heart function”. Besides, the “Max. inhibition of hDPP3” value in assay [3] is 70%.
